A word on the Kd: it is the free concentration of one partner at which half of the binding sites on the other are occupied at equilibrium, for simple one-to-one binding. A higher Kd goes with lower affinity.

The results in this text go back to PMC8064889 (2021).

The target of the experiment is SARS-CoV-2 RBD, His6-tagged, for biolayer interferometry (SARS-CoV-2, UniProt P0DTC2 319-541). Kind of experiment: BLI. A general note: Biolayer interferometry detects binding as a change in optical thickness at a sensor tip.

B1: 47D1 Fab (Fab, V domains shown)
VH: QVQLVQSGAEVKKPGSSVRVSCKASGGTFSTYPISWVRQAPGQGLEWMGGIIPIFGTAKSAQKFQGRVTITADEFTSTAYMEMSSLRSEDTAMYYCAREGRRYGSGWYISTGYFDYWGQGTLVTVSS
VL: QLVLTQPASVSGSPGQSIIVSCTGTSSDVGGYKFVSWYQQHPGKAPRVMIYDVSNRPSGVSNRFSGSKSGNTASLTISGLQADDEADYYCSSYTNSSTVVFGGGTKVTVL
B1 gave a Kd of 2 nM. That is a single-digit nanomolar value.
